Experimental data: PMC11501004

Molecular target: GST-LEA12^OR (Oryza rufipogon Griff.)
Assay: MST
Settings: scale: fold

Kd relative to that of LEA12^93-11: 0.143
B1: MBP-OsSAPK10 (natural protein)
chain: MDRAALTVGPGMDMPIMHDGDRYELVRDIGSGNFGVARLMRSRADGQLVAVKYIERGDKIDENVQREIINHRSLRHPNIIRFKEVILTPTHLAIVMEYASGGELFERICNAGRFSEDEARFFFQQLISGVSYCHSMQVCHRDLKLENTLLDGSTAPRLKICDFGYSKSSVLHSQPKSTVGTPAYIAPEVLLKKEYDGKIADVWSCGVTLYVMLVGAYPFEDPDEPKNFRKTIQRILGVQYSIPDYVHISPECRDLIARIFVANPATRISIPEIRNHPWFLKNLPADLMDDSKMSSQYEEPEQPMQSMDEIMQILAEATIPAAGSGGINQFLNDGLDLDDDMEDLDSDPDLDVESSGEIVYAM
